According to patent US20210388097A1 (SORRENTO THERAPEUTICS, published 2021):

Tests used:
[1] = target: T1, his-tagged human BCMA protein (ACROBiosystems, catalog # BCA-H522y-100 ug) (human, UniProt Q02223 1-54); assay: SPR (Biacore T200), antibody captured on anti-human Fc, his-tagged human BCMA as analyte; fit with ka1/kd1/ka2/kd2 (model not named)
T1 construct: limits of the bought construct are not otherwise stated; also called recombinant his-tagged human BCMA; not shown: his tag of the bought protein
T1 sequence: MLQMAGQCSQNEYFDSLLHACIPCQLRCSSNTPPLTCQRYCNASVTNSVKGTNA
Procedure: Binding kinetics of anti-BCMA antibodies with his-tagged human BCMA protein (ACROBiosystems, catalog # BCA-H522y-100 ug, UniProt Q02223-1, SEQ ID NO:92) was measured using surface plasmon resonance (SPR). Kinetic interactions between the antibodies and his-tagged BCMA proteins were measured at 25° C. using Biacore T200 surface plasmon resonance (GE Healthcare). Anti-human fragment crystallizable region (Fc region) antibody was immobilized on a CM5 sensor chip to approximately 8000 resonance units (RU) using standard N-hydroxysuccinimide/N-Ethyl-N′-(3-dimethylaminopropyl) carbodiimide hydrochloride (NHS/EDC) coupling methodology. The anti-BCMA antibody (2 μg/mL) was captured for 60 seconds at a flow rate of 10 μL/minute. The his-tagged BCMA protein was run at […] different dilutions of 3.12, 6.25, 12.5, 25, 50, 100 and 200 nM, in a running buffer of 0.01 M HEPES pH 7.4, 0.15 M NaCl, 3 mM EDTA, 0.05% v/v Surfactant P20 (HBS-EP+). The 25 nM BCMA protein run was measured two times. All measurements were conducted in HBS-EP+ buffer with a flow rate of 30 μL/minute. […] The SPR sensorgrams of anti-BCMA antibodies BCA7, GSK J6M0, BC4C9 and BC5C4 are shown in FIGS. 1, 2, 3 and 4, respectively, and their corresponding binding kinetics are listed in Table 3.
Binding kinetics of optimized anti-BCMA antibodies BCA7-2C5, BCA7-2D11, BCA7-2G2, BCA7-2E1, BCA7-2D8 and BCA7-2E8, with his-tagged human BCMA protein (ACROBiosystems, catalog # BCA-H522y-100 ug), were analyzed in the manner as described above.

[2] = target: T2, his-tagged cynomolgus BCMA protein (ACROBiosystems, catalog # BCA-052H7) (cynomolgus, UniProt A0A2K5UD97 1-53); assay: SPR (Biacore T200), antibody captured on anti-human Fc chip, his-tagged cynomolgus BCMA as analyte
T2 construct: Bought protein; also called cyno BCMA; not shown: his tag
Procedure: (§1) Binding kinetics of anti-BCMA antibodies with his-tagged human BCMA protein (ACROBiosystems, catalog # BCA-H522y-100 ug, UniProt Q02223-1, SEQ ID NO:92) was measured using surface plasmon resonance (SPR). Kinetic interactions between the antibodies and his-tagged BCMA proteins were measured at 25° C. using Biacore T200 surface plasmon resonance (GE Healthcare). Anti-human fragment crystallizable region (Fc region) antibody was immobilized on a CM5 sensor chip to approximately 8000 resonance units (RU) using standard N-hydroxysuccinimide/N-Ethyl-N′-(3-dimethylaminopropyl) carbodiimide hydrochloride (NHS/EDC) coupling methodology. The anti-BCMA antibody (2 μg/mL) was captured for 60 seconds at a flow rate of 10 μL/minute. The his-tagged BCMA protein was run at […] different dilutions of 3.12, 6.25, 12.5, 25, 50, 100 and 200 nM, in a running buffer of 0.01 M HEPES pH 7.4, 0.15 M NaCl, 3 mM EDTA, 0.05% v/v Surfactant P20 (HBS-EP+). The 25 nM BCMA protein run was measured two times. All measurements were conducted in HBS-EP+ buffer with a flow rate of 30 μL/minute. A 1:1 (Langmuir) binding model was used to fit the data. […]
(§2) Cross reactivity of two of the anti-BCMA antibodies, BCA7-2C5 and BCA7-2E1, with his-tagged human, cynomolgus or mouse BCMA protein were analyzed by SPR in the manner as described above. […]

[3] = target: T3, Mutant-2 human BCMA protein-mouse Fc (human); assay: bio-layer interferometry, antibody (100 nM) loaded on AR2G sensor, BCMA-mouse Fc in solution
T3 construct: also called mutant-2 human BCMA-mouse Fc (del32-35G); mutant-2 BCMA protein
T3 chain: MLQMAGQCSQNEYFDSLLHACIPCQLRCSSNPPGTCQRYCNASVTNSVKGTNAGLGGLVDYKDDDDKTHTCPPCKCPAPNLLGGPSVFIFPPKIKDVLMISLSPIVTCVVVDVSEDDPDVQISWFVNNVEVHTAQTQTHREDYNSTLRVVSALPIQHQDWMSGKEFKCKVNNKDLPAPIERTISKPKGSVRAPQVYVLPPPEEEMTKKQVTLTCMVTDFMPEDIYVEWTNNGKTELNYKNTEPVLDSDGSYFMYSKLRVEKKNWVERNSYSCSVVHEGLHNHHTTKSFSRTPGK
Procedure: (§3) The results of the protein-protein binding assays described in Example 8 were used to design an epitope mapping assay using bio-layer interferometry. Various anti-BCMA antibodies (2C5, 2E1, 4C9, 6G8, Bluebird C11D5, GSK J6M0, or isotype control) (100 nM) were loaded onto AR2G sensors and reacted with buffer or one of three types of human BCMA proteins including: including: wild type human BCMA-mouse Fc (SEQ ID NO:5), mutant-1 human BCMA-mouse Fc (double mutation 17G-18G; SEQ ID NO:6), or mutant-2 human BCMA-mouse Fc (mutation del32-35G; SEQ ID NO:7).

[4] = target: T4, Wild type human BCMA protein-mouse Fc (human); assay: as above
T4 construct: also called wild type human BCMA-mouse Fc; wild type BCMA protein
T4 chain: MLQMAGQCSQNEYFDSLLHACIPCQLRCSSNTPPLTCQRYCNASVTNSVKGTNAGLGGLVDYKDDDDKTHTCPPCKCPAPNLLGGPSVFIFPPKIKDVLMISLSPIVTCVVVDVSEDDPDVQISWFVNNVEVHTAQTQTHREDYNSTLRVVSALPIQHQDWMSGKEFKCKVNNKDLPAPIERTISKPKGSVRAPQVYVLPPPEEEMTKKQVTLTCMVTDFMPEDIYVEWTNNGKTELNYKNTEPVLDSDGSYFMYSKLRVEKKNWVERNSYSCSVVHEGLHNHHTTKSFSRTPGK
Procedure: as §3

[5] = target: T1, his-tagged human BCMA protein …; assay: SPR (Biacore T200), antibody captured on anti-human Fc chip, his-tagged human BCMA as analyte
Procedure: as §1, §2

[6] = target: T5, his-tagged mouse BCMA protein (ACROBiosystems, catalog # BCA-M52H3) (mouse, UniProt O88472 1-49); assay: SPR (Biacore T200), antibody captured on anti-human Fc chip, his-tagged mouse BCMA as analyte
T5 construct: Bought protein; not shown: his tag
T5 chain (looked up): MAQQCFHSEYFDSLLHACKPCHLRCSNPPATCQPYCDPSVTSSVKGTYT
Procedure: as §1, §2

[7] = target: T1, his-tagged human BCMA protein …; assay: SPR (Biacore T200, 25 C), antibody captured on anti-human Fc, his-tagged human BCMA as analyte, 1:1 binding model
Procedure: Binding kinetics of anti-BCMA antibodies with his-tagged human BCMA protein (ACROBiosystems, catalog # BCA-H522y-100 ug, UniProt Q02223-1, SEQ ID NO:92) was measured using surface plasmon resonance (SPR). Kinetic interactions between the antibodies and his-tagged BCMA proteins were measured at 25° C. using Biacore T200 surface plasmon resonance (GE Healthcare). Anti-human fragment crystallizable region (Fc region) antibody was immobilized on a CM5 sensor chip to approximately 8000 resonance units (RU) using standard N-hydroxysuccinimide/N-Ethyl-N′-(3-dimethylaminopropyl) carbodiimide hydrochloride (NHS/EDC) coupling methodology. The anti-BCMA antibody (2 μg/mL) was captured for 60 seconds at a flow rate of 10 μL/minute. The his-tagged BCMA protein was run at six different dilutions of 3.12, 6.25, 12.5, 25, 50, 100 and 200 nM, in a running buffer of 0.01 M HEPES pH 7.4, 0.15 M NaCl, 3 mM EDTA, 0.05% v/v Surfactant P20 (HBS-EP+). The 25 nM BCMA protein run was measured two times. All measurements were conducted in HBS-EP+ buffer with a flow rate of 30 μL/minute. A 1:1 (Langmuir) binding model was used to fit the data. The SPR sensorgrams of anti-BCMA antibodies BCA7, GSK J6M0, BC4C9 and BC5C4 are shown in FIGS. 1, 2, 3 and 4, respectively, and their corresponding binding kinetics are listed in Table 3.

T2 sequence (A0A2K5UD97 entry or part of it): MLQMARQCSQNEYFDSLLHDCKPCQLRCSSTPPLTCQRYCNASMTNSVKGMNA

Binder	Kd [1] [nM]	ka1 [1] [M⁻¹ s⁻¹]	ka2 [1] [s⁻¹]	kd1 [1] [s⁻¹]	kd2 [1] [s⁻¹]	Kd [2] [nM]	binding result [3]	binding result [4]	Kd [5] [nM]	Kd [6] [nM]	Kd [7] [nM]	koff [7] [s⁻¹]	kon [7] [M⁻¹ s⁻¹]
BCA7-2E1 antibody (antibody, V domains shown, also called BCA-2E1) VH: EVQLVESGGGLVKPGGSLRLSCAASGFTSSTAWMSWVRQAPGKGLEWVGRIKSKSDGGTTDYAAPVKGRFTISRDDSKNTLFLQMNSLKTEDTAVYYCAKGGGTYGYWGQGTTVTVSS VL: QSALTQPASVSGSPGQSVTISCTGTSSDGGGHTYVSWYQQHPGKAPKLMIYDVSNRPSWVSNRFSGSKSGNTASLTISGLQAEDEADYYCGSYTSSGSYVFGTGTKLTVL	20.4	2.51e+06	0.0018	0.151	0.000929	174	binds	binds	20.4	1000			
BCA7-2D8 antibody (antibody, V domains shown) VH: EVQLVESGGGLVKPGGSLRLSCAASGFTSSTAWMSWVRQAPGKGLEWVGRIKSKSDGGTTDYAAPVKGRFTISRDDSKNTLFLQMNSLKTEDTAVYYCAKGGGTYGYWGQGTTVTVSS VL: QSVLTQPASVSGSPGQSVTISCTGTSSSIGDSYYVSWYQQHPGKAPKLMIYDVSNRPSGVSNRFSGSKSGNTASLTISGLQAEDEADYYCGSYTSSGSYVFGTGTTLTVL	83.8	2.43e+06	0.0113	1.09	0.0026								
BCA7-2G2 antibody (antibody, V domains shown) VH: EVQLVESGGGLVKPGGSLRLSCAASGFTSSTAWMSWVRQAPGKGLEWVGRIKSKSDGGTTDYAAPVKGRFTISRDDSKNTLFLQMNSLKTEDTAVYYCAKGGGTYGYWGQGTTVTVSS VL: QSVLTQPASVSGSPGQSVTISCTGTSSSVGGRQYVSWYQQHPGKAPKLMIYDVSNRPSGVSNRFSGSKSGNTASLTISGLQAEDEADYYCGSYTSSGSYVFGTGTKLTVL	53.7	32100	0.00143	0.00376	0.00121								
BCA7-2D11 antibody (antibody, V domains shown) VH: EVQLVESGGGLVKPGGSLRLSCAASGFTSSTAWMSWVRQAPGKGLEWVGRIKSKSDGGTTDYAAPVKGRFTISRDDSKNTLFLQMNSLKTEDTAVYYCAKGGGTYGYWGQGTTVTVSS VL: SYELTQPASVSGSPGQSVTISCTGTSSVVGGHDYVSWYQQHPGKAPKLMIYDVSNRPSGVSNRFSGSKSGNTASLTISGLQAEDEADYYCGSYTSSGSYVFGTGTKVTVL	21.9	1.87e+06	0.00381	0.261	0.00071								
BCA7-2E8 antibody (antibody, V domains shown) VH: EVQLVESGGGLVKPGGSLRLSCAASGFTSSTAWMSWVRQAPGKGLEWVGRIKSKSDGGTTDYAAPVKGRFTISRDDSKNTLFLQMNSLKTEDTAVYYCAKGGGTYGYWGQGTTVTVSS VL: QSVLTQPASVSGSPGQSVTISCTGTSSDVGGYNYVSWYQQHPGKAPKLMIYDVSNRPSGVSNRFSGSKSGNTASLTISGLQAEDEADYYCGSLRSNGDYVFGTGTTLTVL	155	48700	0.0119	0.0202	0.00707								
BC5C4 antibody (antibody, V domains shown, also called CD5C4) VH: EVQLVESGGGLVQPGRSLRLSCAASGFTFDDYAMHWVRQAPGKGLEWVSGISWNSGSIGYADSVKGRFTISRDNAKNSLYLQMNSLRAEDTAVYYCATIDNVAFHSWGQGTLVTVSS VL: QSVLTQPPSASGSPGQSVTISCTGTSSDIGGYNYVSWYQQHPGKAPKLIIYEVSNRPSGVSDRFSGSKSGNTASLTISGLQAEDEADYYCSSYTDNGALVVFGGGTKLTVL											9.27	0.033	3.56e+06
BC4C9 antibody (antibody, V domains shown) VH: EVQLVQSGAEVKKPGASVKVSCKAFGYTFTSYDINWVRQATGQGLEWMGWMNPNSGNTGYAQKFQGRVTMTRNTSISTAYMELSSLRSEDTAVYYCASGLGEWGQGTLVTVSS VL: QSVLTQPASVSGSPGQSVTISCTGTSSDVGGYNYVSWYQQHPGKAPKLMIYDVSKRPSGVSNRFSGSKSGNTASLTISGLQAEDEADYYCISYSSSSTFYVFGTGTKVTVL							binds	binds			27.3	0.000567	20800
